Measurements: paper PMC11680790, “Structural and functional determination of peptide versus small molecule ligand binding at the apelin receptor” (Nature Communications, 2024)
pKd: −log10 of the molar value. Each block holds one substance with its values, some of them ahead of it.

How the values were obtained:
[1] = target: wild-type apelin receptor tagged C-terminally with eGFP (human) (UniProt P35414); assay: fluorescent ligand binding on cells (high content confocal imaging); CHO-K1 cells transiently transfected with receptor-eGFP; apelin647 300 nM or ELA647 1 µM in HBSS, 90 min, room temperature, washed and fixed; mean membrane fluorescence of eGFP-positive cells as % WT; non-specific binding with 10 µM [Pyr1]apelin-13
wild-type apelin receptor tagged C-terminally with eGFP (human), sequence (P35414 whole entry): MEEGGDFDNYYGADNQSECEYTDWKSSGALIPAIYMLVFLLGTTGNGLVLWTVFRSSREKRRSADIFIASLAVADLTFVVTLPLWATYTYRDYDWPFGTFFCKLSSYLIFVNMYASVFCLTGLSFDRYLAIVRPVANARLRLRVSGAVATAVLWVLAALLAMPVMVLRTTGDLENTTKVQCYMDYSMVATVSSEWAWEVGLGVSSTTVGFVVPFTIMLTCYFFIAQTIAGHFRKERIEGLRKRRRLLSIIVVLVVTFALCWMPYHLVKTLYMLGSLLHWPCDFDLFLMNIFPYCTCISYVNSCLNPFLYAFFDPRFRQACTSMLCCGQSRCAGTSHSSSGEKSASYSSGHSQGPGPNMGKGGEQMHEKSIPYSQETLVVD

[2] = target: apelin receptor NxStaR (stabilised human apelin receptor) (human) (UniProt P35414); assay: SPR; Biacore 8K+; receptors immobilised on NTA chip (Ni-NTA capture and amine coupling); 10 °C; pH 6.0 buffer ([…] MES, […] NaCl, 0.02% DDM, 5% DMSO); single-cycle, four concentrations; 1:1 model
[3] = target: apelin receptor NxStaR (stabilised human apelin receptor) (human) (UniProt P35414); assay: SPR; Biacore 8K+; receptors immobilised on NTA chip (Ni-NTA capture and amine coupling); 10 °C; pH 7.5 buffer (0.01 M HEPES, […] NaCl, 0.02% DDM, 5% DMSO); single-cycle, four concentrations; 1:1 model
[4] = target: apelin receptor NxStaR (stabilised human apelin receptor) (human) (UniProt P35414); assay: SPR; Biacore T200; receptor immobilised on NTA chip (Ni-NTA capture and amine coupling); 10 °C; 0.01 M HEPES pH 7.5, […] NaCl, 0.02% DDM, 5% DMSO; single-cycle, 6.25-100 nM for Apelin-13 and ΔC2; 1:1 model

membrane ELA647 fluorescence (% WT) [1]: 100 % WT
Substance: ELA647 fluorescently labelled peptide

pKd [2]: 7.68
pKd [3]: 8.49
Substance: NXE'992, chimeric peptide (pyrazole-QRPRL[AIB]S[PipALA]VPFP)

membrane apelin647 fluorescence (% WT) [1]: 100 % WT
Substance: apelin647 fluorescently labelled peptide

pKd [4]: 8.24
Substance: apelin-13 ΔC2 (C-terminally truncated apelin-13 ending with M11) (peptide)
